Experimental data published in US20220213227A1 (published 2022).

T1: human OX40 on cells (human, UniProt P43489 29-277)
T1 sequence (looked up): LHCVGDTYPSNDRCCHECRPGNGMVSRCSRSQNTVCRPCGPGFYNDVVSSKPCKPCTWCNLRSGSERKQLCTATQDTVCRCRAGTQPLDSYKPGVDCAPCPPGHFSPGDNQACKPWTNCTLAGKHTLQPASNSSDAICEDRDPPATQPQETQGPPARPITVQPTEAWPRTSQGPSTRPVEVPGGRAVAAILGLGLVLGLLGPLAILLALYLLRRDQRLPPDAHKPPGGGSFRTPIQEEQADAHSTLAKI

B1: BEAT OX40/CD3 antibody (bispecific antibody, human IgG1, kappa, L234A L235A)
heavy: QVTLKESGPALVKPTQTLTLTCSFSGFSLSTSGMGVGWIRQPPGKALEWIAHIWWDDDKYYNTALKTRLTISKDTSKNQVVLTMTNMDPVDTATYYCARIDWDGFAYWGQGTLVTVSSASTKGPSVFPLAPSSKSTSGGTAALGCLVKDYFPEPVTVSWNSGALTSGVHTFPAVLQSSGLYSLSSVVTVPSSSLGTQTYICNVNHKPSNTKVDKKVEPKSCDKTHTCPPCPAPEAAGGPSVFLFPPKPKDTLMISRTPEVTCVVVDVSHEDPEVKFNWYVDGVEVHNAKTKPREEQYNSTYRVVSVLTVLHQDWLNGKEYKCKVSNKALPAPIEKTISKAKGQPREPAVYTLPPSRDELTKNQVKLVCLVTGFYPSDIAVEWESNGQPENNYYTTPPVLDSDGSFSLVSWLNVDKSRWQQGNVFSCSVMHEALHNHYTQKSLSLSPGK
light: EIVLTQSPATLSLSPGERATLSCRASSSVSYMHWYQQKPGQAPRPWIYATSNRATGIPARFSGSGSGTDYTLTISSLEPEDFAVYYCQQWSSNPWTFGQGTKVEIKRTVAAPSVFIFPPSDEQLKSGTASVVCLLNNFYPREAKVQWKVDNALQSGNSQESVTEQDSKDSTYSLSSTLTLSKADYEKHKVYACEVTHQGLSSPVTKSFNRGEC
chain: EVQLVESGGGLVQPGGSLRLSCAASGYTFTRYTMHWVRQAPGKGLEWIGYINPSRGYTYYADSVKGRFTLSTDKSKNTAYLQMSSLRAEDTAVYYCARYYDDHYCLDYWGQGTLVTVSSGGGGSGGGGSGGGGSGGGASDIQLTQSPSSLSASVGDRVTITCRASSSVSYVAWYQQKPGKAPKRWIYDTSKLYSGVPSRFSGSGSGTDYTLTISSLQPEDFATYYCQQWSSNPPTFGQGTKVEIKGGGGTDKTHTCPPCPAPEAAGGPSVFLFPPKPKDTLMISRTPEVTCVVVDVSHEDPEVQFKWYVDGVEVHNAKTKPREEQYNSTFRVVSVLTVLHQDWLNGKEYKCKVSNKALPAPIEKTISKTKGQPREPEVATFPPSREEMTKNQVTLVCLVTGFYPSDIAVEWESSGQPENNYNTDPPLLESDGSFALSSRLRVDKSRWQQGNIFSCSVMHEALHNRFTQKSLSLSPGK
B2: human 767 antibody (antibody, human IgG1, kappa, V domains shown)
VH: QVQLVESGGGLVQPGGSLRLSCAASGFTFSSYWMSWVRQAPGKGLEWVANIKQDGSEKYYVDSVKGRFTISRDNAKNSLYLQMNSLRAEDTAVYYCAREGRTGYFDYWGQGTLVTVSS
VL: QSVLTQPPSASGTPGQRVTISCSGSTSNIGTNYVYWYQQLPGTAPKLLIYRNDQRPSGVPDRFSGSKSGTSASLAISGLRSEDEADYYCAAWDDSRSGVYAFGTGTKVTVLR
notes: Human IgG1; also called clone 767 IgG1 antibody

Columns and labels:
human OX40 on cells = target: T1, human OX40 on cells; assay: cell-based or functional assay
[1] = target: T2, soluble extracellular region of human CD38 fused to a 6-His-tag (human, UniProt P28907 43-300); assay: SPR, antibody captured on protein G chip, equilibrium response vs concentration
T2 construct: Extracellular region = UniProt P28907 residues 43-300, with a 6-His-tag at the C-terminal end; also called human CD38 protein; human CD38 antigen

[2] = target: soluble extracellular region of cynomolgus monkey CD38 antigen fused to a 6-His-tag (cynomolgus monkey, UniProt Q5VAN0 45-301); assay: SPR

Row | Binder | EC50 of T cell redirected killing of stable recombinant CHO[OX40] cells (RDL-MTS) (human OX40 on cells) | Kd [1] | Kd [2]
1 | B1 | 0.5 nM | – | –
2 | B2 | – | ~300 nM | ~1200 nM
